Test results from patent US20240299570A1 (CELGENE, published 2024).

Biological target: T1, BCMA on BCMA-positive myeloma cell lines (NCI-H929, ARP-1, U266B1) (Homo sapiens (Human), UniProt Q02223 1-184)
T1 sequence: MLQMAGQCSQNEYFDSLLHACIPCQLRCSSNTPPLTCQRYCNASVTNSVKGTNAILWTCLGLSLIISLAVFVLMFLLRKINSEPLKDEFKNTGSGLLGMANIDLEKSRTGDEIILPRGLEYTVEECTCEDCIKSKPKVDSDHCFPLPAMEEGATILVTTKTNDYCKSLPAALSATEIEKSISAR
Test: cell-based or functional assay

B1: Antibody 2265-F02 (antibody, V domains shown)
VH: EVQLVESGGGLVQPGGSLRLSCAASGFNISAPGIHWVRQAPGKGLEWVGFINPAGGYTDYADSVKGRFTISADTSKNTAYLQMNSLRAEDTAVYYCARDYIRQYWTYVLDYWGQGTLVTVSS
VL: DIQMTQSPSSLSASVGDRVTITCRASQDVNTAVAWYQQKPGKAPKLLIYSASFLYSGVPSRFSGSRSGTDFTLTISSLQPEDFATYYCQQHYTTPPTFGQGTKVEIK
ARP-1, Conjugate M 2° antibody cell killing, EC50: 1.9 nM
U266B1, Conjugate M 2° antibody cell killing, EC50: 0.9 nM
